The values that follow come from patent US20200024330A1.

Holding throughout (experiment): cell-based or functional assay
Test [1] addresses HIV-1 92RW008 envelope glycoprotein (Env) (HIV-1).
Test [2] has as its target HIV-1 92RW024 envelope glycoprotein (Env) on pseudovirus (HIV-1).
For test [3], the target named is HIV-1 98CN006 envelope glycoprotein (Env) on pseudovirus (HIV-1).
The target in test [4] is HIV-1 Env of isolate MGRM-D-001 (clade D) (HIV-1).
Test [5] deals with HIV-1 Env of isolate MGRM-G-027 (clade G pseudovirus) (HIV-1).
Test [6] concerns the target HIV-1 Env of pseudovirus APV_13, clade B (HIV-1).
Test [7] has as its target HIV-1 MGRM-A-001 envelope glycoprotein (Env) (HIV-1).
Test [8] concerns the target HIV-1 MGRM-A-003 envelope glycoprotein (Env) (HIV-1).
The target of test [9] is HIV-1 MGRM-A-005 envelope glycoprotein (Env) (HIV-1).
In test [10] the target is HIV-1 MGRM-C-001 Env (HIV-1).
For test [11], the target named is HIV-1 MGRM-C-017 Env (HIV-1).
The target of test [12] is HIV-1 MGRM-C-020 Env (HIV-1).
Test [13] has as its target HIV-1 MGRM-F1-004 Env (pseudovirus) (HIV-1).
In test [14] the target is HIV-1 MGRM-F1-020 Env (pseudovirus) (HIV-1).
Test [15] addresses HIV-1 Env of isolate 92BR020 (pseudovirus) (HIV-1 isolate 92BR020, subtype B).
The target in test [16] is HIV-1 Env of isolate 92UG001 (HIV-1).
Test [17] concerns the target HIV-1 Env of isolate 92UG037 (HIV-1).
For test [18], the target named is HIV-1 Env of isolate 92WR021 (HIV-1).
The target of test [19] is HIV-1 Env of isolate 92WR024 (HIV-1).
Test [20] concerns the target HIV-1 Env of isolate 94KE105 (subtype AC), on pseudovirus (HIV-1).
Test [21] addresses HIV-1 Env of isolate MGRM-A-012 (clade A), on pseudovirus (HIV-1).
Test [22] has as its target HIV-1 Env of isolate MGRM-AE-002 (CRF01_AE), on pseudovirus (HIV-1).
Test [23] deals with HIV-1 Env of isolate MGRM-C-007 (HIV-1).
Test [24] concerns the target HIV-1 Env of isolate MGRM-C-014 (HIV-1).
The target of test [25] is HIV-1 Env of isolate MGRM-C-020 (HIV-1).
Test [26] concerns the target HIV-1 Env of isolate MGRM-C-025 (HIV-1).
In test [27] the target is HIV-1 Env of isolate MGRM-F1-008 (subtype F), on pseudovirus (HIV-1).
Test [28] has as its target HIV-1 Env of isolate MGRM-F1-020 (subtype F), on pseudovirus (HIV-1).
In test [29] the target is HIV-1 Env of isolate SC422661.8 (HIV-1).
Test [30] concerns the target HIV-1 JR-CSF Env D185A (HIV-1 (isolate JR-CSF)) (UniProt P20871).
Test [31] has as its target HIV-1 JR-CSF Env N134A (HIV-1 (isolate JR-CSF)) (UniProt P20871).
For test [32], the target named is HIV-1 JR-CSF Env N478A (HIV-1 (isolate JR-CSF)) (UniProt P20871).
In test [33] the target is HIV-1 JR-CSF Env T162A (HIV-1 (isolate JR-CSF)) (UniProt P20871).
Test [34] has as its target HIV-1 MGRM-A-010 envelope glycoprotein (Env) on pseudovirus (HIV-1).

Usually IC50 stands for the midpoint of a concentration-inhibition curve. The low end stands for greater potency, the high end for weaker potency. As for 2F5 (antibody), the IC50 (µg/ml), pseudovirus neutralization in [1] is 10.4 µg/mL; in [2], 8.22 µg/mL; in [3], over 50 µg/mL; in test [4] it was 0.63 µg/mL; in test [5], 0.28 µg/mL; in test [6], 3.81 µg/mL. Also, the IC50 (µg/ml), pseudovirus neutralization in test [7] was over 50 µg/mL; in [8] it was 7.37 µg/mL; in test [9] it was 5.7 µg/mL; in test [13], 4.31 µg/mL; in [14] it was 0.59 µg/mL. The IC50 in [10], in test [11] and in test [12] was over 50 µg/mL each time.
As to 2G12 (antibody), the IC50 (µg/ml), pseudovirus neutralization was 22.5 µg/mL in test [1]; over 50 µg/mL in test [2]; over 50 µg/mL in test [3]; over 50 µg/mL in test [4]; over 50 µg/mL in test [5]; 9.24 µg/mL in test [6]. The IC50 (µg/ml), pseudovirus neutralization in test [7], in test [8], in test [9], in test [13] and in test [14] was over 50 µg/mL each time. In addition, the IC50 in [10] was 2.93 µg/mL; in [11], over 50 µg/mL; in test [12] it was 18.6 µg/mL.
As for 4E10 (antibody), the IC50 (µg/ml), pseudovirus neutralization in test [1] worked out at 14.5 µg/mL; in test [2], 8.88 µg/mL; in test [3], 1.91 µg/mL; in test [4], 1.84 µg/mL; in [5] it was 1.19 µg/mL; in test [6] it was 7.33 µg/mL. Also, the IC50 (µg/ml), pseudovirus neutralization in test [7] is 15.1 µg/mL; in test [8] it was 5.94 µg/mL; in test [9], 4.09 µg/mL; in [13], 2.74 µg/mL; in [14], 0.66 µg/mL. Moreover, the results for the IC50 in [10], in [11] and in test [12] were 5.66 µg/mL, 1.47 µg/mL and 2.8 µg/mL, respectively.
Substance 5114_A19 (PGT-128) (antibody) gave an IC50 (µg/mL) neutralization in test [15] of 0.009 µg/mL. Moreover, the IC50 is over 50 µg/mL in test [16]; 0.111 µg/mL in test [23]; over 50 µg/mL in [24]; 5.85 µg/mL in [25]; 10.5 µg/mL in test [26]; 1.58 µg/mL in test [29]. Further, the neutralization IC50 was 0.006 µg/mL in test [17], 0.005 µg/mL in test [18] and over 50 µg/mL in test [19]. Moreover, the results for the IC50, single-round pseudovirus neutralization in test [20], in test [21] and in test [22] were 0.007 µg/mL, 0.025 µg/mL and 0.522 µg/mL, respectively. Moreover, the IC50, pseudovirus neutralization was over 50 µg/mL in test [27] and 0.355 µg/mL in test [28]. The Fold IC50 increase relative to wild-type in test [30] was found to be 1.5 fold; in [31], 1.2 fold; in test [32], 0.8 fold; in test [33], 1.1 fold.
In turn, 5136_H01 (PGT-131) (antibody) showed an IC50 (µg/mL) neutralization in test [15] of 6.16 µg/mL. For the same substance, the IC50 in test [16], in test [23], in [24], in test [25], in [26] and in [29] was over 50 µg/mL throughout. The neutralization IC50 was 0.048 µg/mL in [17], 0.012 µg/mL in test [18] and over 50 µg/mL in [19]. Besides, the values for the IC50, single-round pseudovirus neutralization in test [20], in [21] and in [22] were 0.013 µg/mL, over 50 µg/mL and over 50 µg/mL, respectively. The IC50, pseudovirus neutralization in test [27] is 2.74 µg/mL; in test [28] it was over 50 µg/mL. In addition, the Fold IC50 increase relative to wild-type in test [30] amounted to 0.7 fold; in test [31] it was 0.5 fold; in [32] it was 1 fold; in [33], 0.6 fold.
In [15], 5147_N06 (PGT-130) (antibody) registered an IC50 (µg/mL) neutralization of 1.4 µg/mL. For the same substance, the IC50 in test [16], in test [23], in [24], in [25], in test [26] and in [29] was over 50 µg/mL throughout. For the same substance, the neutralization IC50 is 0.061 µg/mL in test [17], 0.004 µg/mL in test [18], over 50 µg/mL in [19] and over 10 µg/mL in test [4]. For the same substance, the IC50, single-round pseudovirus neutralization in test [20] was 0.004 µg/mL; in test [21] it was over 50 µg/mL; in test [22] it was 1.53 µg/mL. Further, the neutralization IC80 in test [4] was over 10 µg/mL. For the same substance, the neutralization IC90 in test [4] was over 10 µg/mL. For the same substance, in test [4], the neutralization IC95 was over 10 µg/mL. The IC50, pseudovirus neutralization in test [27] was 0.065 µg/mL; in test [28] it was 9.73 µg/mL. Besides, the Fold IC50 increase relative to wild-type in [30] amounted to 0.9 fold; in test [31], 0.6 fold; in [32], 0.8 fold; in test [33] it was 0.6 fold. The substance also returned an IC50 (ug/ml), neutralizing activity in [34] of 0.0054 µg/mL.
5329_C19 (PGT-136) (antibody) registered an IC50 (µg/mL) neutralization in [15] of 8.61 µg/mL. In addition, the IC50 in [16], in test [23], in test [24], in [25], in [26] and in test [29] was over 50 µg/mL in each case. Moreover, the neutralization IC50 in test [17], in test [18] and in [19] was over 50 µg/mL each time. The IC50, single-round pseudovirus neutralization in test [20], in [21] and in test [22] was over 50 µg/mL throughout. Moreover, the IC50, pseudovirus neutralization in test [27] is over 50 µg/mL; in test [28], 9.31 µg/mL.
Substance 5343_B08 (PGT-135) (antibody) displayed an IC50 (µg/mL) neutralization in [15] of 0.073 µg/mL. Also, the IC50 in [16] was over 50 µg/mL; in test [23], over 50 µg/mL; in [24] it was over 50 µg/mL; in test [25], over 50 µg/mL; in [26] it was over 50 µg/mL; in [29], 21.8 µg/mL. Besides, the neutralization IC50 in test [17] is 3.67 µg/mL; in [18], over 50 µg/mL; in [19], over 50 µg/mL. Moreover, the IC50, single-round pseudovirus neutralization in test [20] was 0.063 µg/mL; in test [21] it was over 50 µg/mL; in [22], over 50 µg/mL. Moreover, the IC50, pseudovirus neutralization in test [27] was over 50 µg/mL; in test [28] it was 0.168 µg/mL. Moreover, the Fold IC50 increase relative to wild-type in [30] turned out to be 1.3 fold; in test [31], 0.2 fold; in [32], 0.7 fold; in test [33], 0.9 fold.
Take 5345_I01 (PGT-137) (antibody): the IC50 (µg/mL) neutralization in test [15] came out at 7.81 µg/mL. For the same substance, the IC50 in [16], in test [23], in test [24], in test [25], in [26] and in test [29] was over 50 µg/mL each time. The neutralization IC50 in test [17] was over 50 µg/mL; in test [18], 3.52 µg/mL; in [19] it was over 50 µg/mL. Moreover, the IC50, single-round pseudovirus neutralization in test [20] was 18.5 µg/mL; in [21], over 50 µg/mL; in [22] it was over 50 µg/mL. In addition, the figures for the IC50, pseudovirus neutralization in test [27] and in test [28] were over 50 µg/mL and 1.93 µg/mL, respectively.
